B1: Nme1Cas9-Nme2Cas9PID chimera (Nme1Cas9 with its PID replaced by that of Nme2Cas9) (protein)
chain: MAAFKPNSINYILGLDIGIASVGWAMVEIDEEENPIRLIDLGVRVFERAEVPKTGDSLAMARRLARSVRRLTRRRAHRLLRTRRLLKREGVLQAANFDENGLIKSLPNTPWQLRAAALDRKLTPLEWSAVLLHLIKHRGYLSQRKNEGETADKELGALLKGVAGNAHALQTGDFRTPAELALNKFEKESGHIRNQRSDYSHTFSRKDLQAELILLFEKQKEFGNPHVSGGLKEGIETLLMTQRPALSGDAVQKMLGHCTFEPAEPKAAKNTYTAERFIWLTKLNNLRILEQGSERPLTDTERATLMDEPYRKSKLTYAQARKLLGLEDTAFFKGLRYGKDNAEASTLMEMKAYHAISRALEKEGLKDKKSPLNLSPELQDEIGTAFSLFKTDEDITGRLKDRIQPEILEALLKHISFDKFVQISLKALRRIVPLMEQGKRYDEACAEIYGDHYGKKNTEEKIYLPPIPADEIRNPVVLRALSQARKVINGVVRRYGSPARIHIETAREVGKSFKDRKEIEKRQEENRKDREKAAAKFREYFPNFVGEPKSKDILKLRLYEQQHGKCLYSGKEINLGRLNEKGYVEIDHALPFSRTWDDSFNNKVLVLGSENQNKGNQTPYEYFNGKDNSREWQEFKARVETSRFPRSKKQRILLQKFDEDGFKERNLNDTRYVNRFLCQFVADRMRLTGKGKKRVFASNGQITNLLRGFWGLRKVRAENDRHHALDAVVVACSTVAMQQKITRFVRYKEMNAFDGKTIDKETGEVLHQKTHFPQPWEFFAQEVMIRVFGKPDGKPEFEEADTLEKLRTLLAEKLSSRPEAVHEYVTPLFVSRAPNRKMSGAHKDTLRSAKRFVKHNEKISVKRVWLTEIKLADLENMVNYKNGREIELYEALKARLEAYGGNAKQAFDPKDNPFYKKGGQLVKAVRVEKTQESGVLLNKKNAYTIADNGDMVRVDVFCKVDKKGKNQYFIVPIYAWQVAENILPDIDCKGYRIDDSYTFCFSLHKYDLIAFQKDEKSKVEFAYYINCDSSNGRFYLAWHDKGSKEQQFRISTQNLVLIQKYQVNELGKEIRPCRLKKRPPVR
B2: Recombinant Nme2Cas9 (Cas9 of Neisseria meningitidis strain Del1444), purified from E. coli (protein)
chain: PKKKRKVNAMAAFKPNPINYILGLDIGIASVGWAMVEIDEEENPIRLIDLGVRVFERAEVPKTGDSLAMARRLARSVRRLTRRRAHRLLRARRLLKREGVLQAADFDENGLIKSLPNTPWQLRAAALDRKLTPLEWSAVLLHLIKHRGYLSQRKNEGETADKELGALLKGVANNAHALQTGDFRTPAELALNKFEKESGHIRNQRGDYSHTFSRKDLQAELILLFEKQKEFGNPHVSGGLKEGIETLLMTQRPALSGDAVQKMLGHCTFEPAEPKAAKNTYTAERFIWLTKLNNLRILEQGSERPLTDTERATLMDEPYRKSKLTYAQARKLLGLEDTAFFKGLRYGKDNAEASTLMEMKAYHAISRALEKEGLKDKKSPLNLSSELQDEIGTAFSLFKTDEDITGRLKDRVQPEILEALLKHISFDKFVQISLKALRRIVPLMEQGKRYDEACAEIYGDHYGKKNTEEKIYLPPIPADEIRNPVVLRALSQARKVINGVVRRYGSPARIHIETAREVGKSFKDRKEIEKRQEENRKDREKAAAKFREYFPNFVGEPKSKDILKLRLYEQQHGKCLYSGKEINLVRLNEKGYVEIDHALPFSRTWDDSFNNKVLVLGSENQNKGNQTPYEYFNGKDNSREWQEFKARVETSRFPRSKKQRILLQKFDEDGFKECNLNDTRYVNRFLCQFVADHILLTGKGKRRVFASNGQITNLLRGFWGLRKVRAENDRHHALDAVVVACSTVAMQQKITRFVRYKEMNAFDGKTIDKETGKVLHQKTHFPQPWEFFAQEVMIRVFGKPDGKPEFEEADTPEKLRTLLAEKLSSRPEAVHEYVTPLFVSRAPNRKMSGAHKDTLRSAKRFVKHNEKISVKRVWLTEIKLADLENMVNYKNGREIELYEALKARLEAYGGNAKQAFDPKDNPFYKKGGQLVKAVRVEKTQESGVLLNKKNAYTIADNGDMVRVDVFCKVDKKGKNQYFIVPIYAWQVAENILPDIDCKGYRIDDSYTFCFSLHKYDLIAFQKDEKSKVEFAYYINCDSSNGRFYLAWHDKGSKEQQFRISTQNLVLIQKYQVNELGKEIRPCRLKKRPPVRGGGGSGGGGSGGGGSPAAKKKKLDGGGSKRPAATKKAGQAKKKK
B3: Nme1Cas9 (Cas9 of Neisseria meningitidis strain 8013), recombinant, purified from E. coli (protein)
chain: MAAFKPNSINYILGLDIGIASVGWAMVEIDEEENPIRLIDLGVRVFERAEVPKTGDSLAMARRLARSVRRLTRRRAHRLLRTRRLLKREGVLQAANFDENGLIKSLPNTPWQLRAAALDRKLTPLEWSAVLLHLIKHRGYLSQRKNEGETADKELGALLKGVAGNAHALQTGDFRTPAELALNKFEKESGHIRNQRSDYSHTFSRKDLQAELILLFEKQKEFGNPHVSGGLKEGIETLLMTQRPALSGDAVQKMLGHCTFEPAEPKAAKNTYTAERFIWLTKLNNLRILEQGSERPLTDTERATLMDEPYRKSKLTYAQARKLLGLEDTAFFKGLRYGKDNAEASTLMEMKAYHAISRALEKEGLKDKKSPLNLSPELQDEIGTAFSLFKTDEDITGRLKDRIQPEILEALLKHISFDKFVQISLKALRRIVPLMEQGKRYDEACAEIYGDHYGKKNTEEKIYLPPIPADEIRNPVVLRALSQARKVINGVVRRYGSPARIHIETAREVGKSFKDRKEIEKRQEENRKDREKAAAKFREYFPNFVGEPKSKDILKLRLYEQQHGKCLYSGKEINLGRLNEKGYVEIDHALPFSRTWDDSFNNKVLVLGSENQNKGNQTPYEYFNGKDNSREWQEFKARVETSRFPRSKKQRILLQKFDEDGFKERNLNDTRYVNRFLCQFVADRMRLTGKGKKRVFASNGQITNLLRGFWGLRKVRAENDRHHALDAVVVACSTVAMQQKITRFVRYKEMNAFDGKTIDKETGEVLHQKTHFPQPWEFFAQEVMIRVFGKPDGKPEFEEADTLEKLRTLLAEKLSSRPEAVHEYVTPLFVSRAPNRKMSGQGHMETVKSAKRLDEGVSVLRVPLTQLKLKDLEKMVNREREPKLYEALKARLEAHKDDPAKAFAEPFYKYDKAGNRTQQVKAVRVEQVQKTGVWVRNHNGIADNATMVRVDVFEKGDKYYLVPIYSWQVAKGILPDRAVVQGKDEEDWQLIDDSFNFKFSLHPNDLVEVITKKARMFGYFASCHRGTGNINIRIHDLDHKIGKNGILEGIGVKTALSFQKYQIDELGKEIRPCRLKKRPPVR

Assays:
[1] = target: AcrIIC5Smu
[2] = target: AcrIIC3Nme
[3] = target: AcrIIC1Nme
[4] = target: AcrIIC2Nme
[5] = target: AcrIIC4Hpa
[6] = target: AcrE2

Protein	in vitro DNA cleavage by the Nme1Cas9-Nme2Cas9PID chimera in the presence of Acr (10 uM Cas9-sgRNA + 100 uM Acr) [1]	in vitro DNA cleavage by Cas9 in the presence of Acr (10:1 Acr:Cas9 molar ratio) [2]	in vitro DNA cleavage by Cas9 in the presence of Acr (10:1 Acr:Cas9 molar ratio) [3]	in vitro DNA cleavage by Cas9 in the presence of Acr (10:1 Acr:Cas9 molar ratio) [1]	in vitro DNA cleavage by Cas9 in the presence of Acr (10:1 Acr:Cas9 molar ratio) [4]	in vitro DNA cleavage by Cas9 in the presence of Acr (10:1 Acr:Cas9 molar ratio) [5]	in vitro DNA cleavage by Cas9 in the presence of Acr (10:1 Acr:Cas9 molar ratio) [6]
B1	No inhibition was observed by AcrIIC5Smu on this protein chimera	–	–	–	–	–	–
B2	–	completely inhibited Nme2Cas9	completely inhibited Nme2Cas9	did not inhibit Nme2Cas9 in vitro even at a 10-fold molar excess	completely inhibited Nme2Cas9	completely inhibited Nme2Cas9	–
B3	–	all 5 families inhibited Nme1Cas9	all 5 families inhibited Nme1Cas9	all 5 families inhibited Nme1Cas9	all 5 families inhibited Nme1Cas9	all 5 families inhibited Nme1Cas9	AcrE2 failed to do so
